Test: yeast display, Sf9 membrane polyspecificity reagent, FACS + sequencing; frameworks hold sequencing errors
How it was run: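 Galactose-induced (36–48 hours) yeast carrying a synthetic nanobody display library were exposed to 10% biotinylated, detergent-solubilized Sf9 membrane reagent at 4 °C for 1 hour. FACS followed streptavidin microbead enrichment, using low and high (top ~1%) gates for expression (anti-HA) and reagent binding (streptavidin). Colony PCR, MiSeq 2 × 250 sequencing and CDR-length filtering followed. Labels for polyreactivity reflect the gate of origin.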

Row | Sequence | polyreactivity (PSR sort gate)
1 | QVQLVESGGGLVQAGGSLRLSCAASGRTFYPNAMGWSRQAPGQERAFVARISDSGGSTYYADSVKGRFTISRDNAKNTVYLQMNSLKPEDNAVYYCAADYGDPRVNEYDYWGQGTQVTVSS | low polyreactivity
2 | QVQLVESGGGLVQAGGSLRLSCAASGRTFYPNTMGWYRQAPGKERELVATITRSGGNTYADSVKGRFTISRDNAKNTVYLQMNSLKREDTAVYYCNADQRRSYWLVSQRYDYWGQGTQVTVSS | low polyreactivity
3 | QVQLVESGGGLVQAGGSLRLSCAASGRTFYPYAMGWNRQAPGKERELVAAIRSSGGTTYYADSVKGRFTISRDNAKNTVYLQMNSLKPEDTAFYYCAAYVDRQGGYYWGQGTQVTVSS | high polyreactivity
4 | QVQLVESGGGLVQAGGSLRLSCAASGRTFYPYDLGWYRQEPGKERELVAAIRENGGSTYFADSVKGRFTISRDNAKNTVYLQLTSLKPEDNAVYYCAARNTRYWRYEYWGLGTQVTVSS | high polyreactivity
5 | QVQLVESGGGLVQAGGSLRLSCAASGRTFYPYVMGWYRQAPGKEREMVAAISYTGGSTYYADSVKGRFTISRDNAKNTVYLQMNSLKPEDTAVYYCNRAKYYSGGYRYHVDYWGQGTQVTVSS | high polyreactivity
6 | QVQLVESGGGLVQAGGSLRLSCAASGRTFYQYAMGWYRQAPGKERELVAAISRRGGSTYYADSVKGRFTISRDNAKNTVYLQMNSLKPEDTAVYYCAARVRGKYDYWGQGTQVTVSS | high polyreactivity
7 | QVQLVESGGGLVQAGGSLRLSCAASGRTFYQYDMGWYRQAPGKERELVAAIDWSGGSTYYADSVKGRFTISRDNAKNTVYLQMNSLKPEDTAVYYCNKDSHISTAYDYWGQGTQVTVSS | low polyreactivity
8 | QVQLVESGGGLVQAGGSLRLSCAASGRTFYQYDMGWYRQAPGKESELVAAIDWSGGSTYYADSVKGRFTISRDYAKITVYLQMNSLKPEDTAVYYCNADAYPHPVVGYDYWGQGTQVTVSS | low polyreactivity
9 | QVQLVESGGGLVQAGGSLRLSCAASGRTFYQYTMGWYRQAPGKERELVAAITTSTGNTYYADSVKGRFTISRDNAKNTDYLQMNSLKPEDTAVYYCAADTVWRLDYWGQGTQVTVSS | low polyreactivity
10 | QVQLVESGGGLVQAGGSLRLSCAASGRTFYRNAMGWSRPAPGKERELVAAISSDDSTNYADSVKGRFTISRDNAKNTVYLQMNSLKPEDTAVYYCNADYYYGYEYDYWGQGTQVTVSS | low polyreactivity
11 | QVQLVESGGGLVQAGGSLRLSCAASGRTFYRNAMGWYRQAPGKERELVAAISNGGSTNYADSVKGRFTISRDNAKNTVYLQMNSLKPEDTAVYYCAKAVIRWRGSGQHGYFWYDYLGQGTQVTVSS | high polyreactivity
12 | QVQLVESGGGLVQAGGSLRLSCAASGRTFYRNTMGWYRQAPGKEREFVAAISATAGRTYYADSVKGRFTISRDNAKNTVYLQMNSLKPEDTAVYYCAAVPLRNRWPNSWPALDYWGQGTQVTVSS | high polyreactivity
13 | QVQLVESGGGLVQAGGSLRLSCAASGRTFYRNTMGWYRQAPGKERELVAAITGSGGITYYADSVKGRFTISRDNAKNTVYLKMNSLKPEDTAVYYCAAARYLGQGTQVTVSS | high polyreactivity
14 | QVQLVESGGGLVQAGGSLRLSCAASGRTFYRYAMGLYRQAPRKERELVASITRGTSTNYADSVKGRFTISRDNAKNTVYLQMNSLKPEDTAVYYCNRRIFGGQRMYYWGQGTQVTVSS | high polyreactivity
15 | QVQLVESGGGLVQAGGSLRLSCAASGRTFYRYAMGWYRQAPGKERELVAAITGGGRTYYADSVKGRFTISRDNAKNTVYLQMNSLKPEDTAVYDCAAVVLRRPAYDYWGQGTQVTVSS | low polyreactivity
16 | QVQLVESGGGLVQAGGSLRLSCAASGRTFYRYAMGWYRQAPGKERELVAAITRRGDSTSYADSVKGRFTISRDNAKNTVYLQMNSLKPEDTAVYYCATLVQGSVYGLYGGGYWGQGTQVTVSS | low polyreactivity
17 | QVQLVESGGGLVQAGGSLRLSCAASGRTFYRYAMGWYRQAPGKERELVASITWSGGSTYYADSVKGRFTISRDNAKNTVYLQMNSLKPEDTAVYYCAAISAVTLRGYYYWGQGTQVTVSS | high polyreactivity
